1 substance from publication PMC8580882 can be followed below.

The target of this assay is Cyclosorus parasiticus chalcone synthase 1 (CpCHS1) (Cyclosorus parasiticus). The assay can be described thus: crystal structure; sitting-drop vapor diffusion at 20°C; 0.2 M sodium chloride, 0.1 M Tris-HCl pH 8.0, 20% w/v PEG 4000; apo form at 1.9 Å, complexes with naringenin and with naringenin + CoA at 2.4 Å; molecular replacement with 6DXB.

Take “Cyclosorus parasiticus chalcone synthase 1 (CpCHS1) (enzyme)”: the stoichiometry N (in general, the number of molecules, sites or subunits per partner or assembly) is 2.
